Measurements: patent US20250092426, “CAS ENDONUCLEASES AND RELATED METHODS” (Flagship Pioneering Innovations VII, LLC, published 2025)

Biological target: T1, CasEnd-24 (synthetic construct)
T1 chain: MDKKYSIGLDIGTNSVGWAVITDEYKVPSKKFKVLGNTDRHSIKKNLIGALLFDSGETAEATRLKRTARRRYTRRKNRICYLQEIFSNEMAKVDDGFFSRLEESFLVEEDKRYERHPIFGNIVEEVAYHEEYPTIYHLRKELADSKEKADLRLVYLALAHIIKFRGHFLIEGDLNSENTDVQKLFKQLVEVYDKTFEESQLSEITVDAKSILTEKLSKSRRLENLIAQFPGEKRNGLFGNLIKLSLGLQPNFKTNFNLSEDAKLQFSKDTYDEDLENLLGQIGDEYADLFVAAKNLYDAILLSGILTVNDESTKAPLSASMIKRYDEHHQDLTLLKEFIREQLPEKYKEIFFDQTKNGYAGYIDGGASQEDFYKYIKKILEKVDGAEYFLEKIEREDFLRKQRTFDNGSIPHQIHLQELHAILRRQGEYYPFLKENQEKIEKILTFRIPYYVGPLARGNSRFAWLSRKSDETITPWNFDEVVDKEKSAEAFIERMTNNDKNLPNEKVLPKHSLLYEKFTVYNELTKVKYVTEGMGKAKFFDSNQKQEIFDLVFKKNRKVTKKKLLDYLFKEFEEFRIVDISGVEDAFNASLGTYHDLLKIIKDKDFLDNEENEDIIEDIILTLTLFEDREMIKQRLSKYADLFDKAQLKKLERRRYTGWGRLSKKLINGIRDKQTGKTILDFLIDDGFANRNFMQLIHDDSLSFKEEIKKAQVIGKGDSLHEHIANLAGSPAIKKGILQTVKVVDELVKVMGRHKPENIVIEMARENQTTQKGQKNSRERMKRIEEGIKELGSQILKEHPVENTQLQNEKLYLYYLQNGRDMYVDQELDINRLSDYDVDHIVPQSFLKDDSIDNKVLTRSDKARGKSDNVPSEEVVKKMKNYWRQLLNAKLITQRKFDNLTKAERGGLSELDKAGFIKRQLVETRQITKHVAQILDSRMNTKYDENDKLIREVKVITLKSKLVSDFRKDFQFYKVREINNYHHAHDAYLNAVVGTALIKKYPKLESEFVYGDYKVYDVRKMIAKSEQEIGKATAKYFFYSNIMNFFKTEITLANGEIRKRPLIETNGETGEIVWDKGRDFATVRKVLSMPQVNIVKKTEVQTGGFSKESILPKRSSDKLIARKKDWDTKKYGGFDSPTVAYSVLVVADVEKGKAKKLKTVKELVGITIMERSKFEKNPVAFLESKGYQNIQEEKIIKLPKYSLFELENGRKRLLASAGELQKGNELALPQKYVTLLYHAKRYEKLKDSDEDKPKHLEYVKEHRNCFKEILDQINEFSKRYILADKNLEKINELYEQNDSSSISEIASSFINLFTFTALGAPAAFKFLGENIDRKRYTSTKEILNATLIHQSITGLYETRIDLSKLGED
Assay: cell_activity; +++; HEK293T; PAM not stated
In short: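 Editing activity was scored as the fraction of GFP+ cells on day 4 by flow cytometry. BFP-expressing HEK293T cells (250,000) received by nucleofection 200 ng plasmid for the RT-Cas fusion protein and 200 ng template RNA plasmid designed to convert BFP to GFP.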

B1: BFP-to-GFP template RNA ; BFP reporter protospacer (ssRNA ; dsDNA)
RNA: GCCGAAGCACUGCACGCCGUGUUUUAGAGCUAGAAAUAGCAAGUUAAAAUAAGGCUAGUCCGUUAUCAACUUGAAAAAGUGGCACCGAGUCGGUGCACCCUGACGUACGGCGUGCAGUGCUU
DNA 1: GCCGAAGCACTGCACGCCGT
DNA 2: ACGGCGTGCAGTGCTTCGGC
B1 was tested, and the activity was ≥ 100 % of reference.
